Assay results taken from the supplement of paper PMC10065799, “High-throughput profiling of sequence recognition by tyrosine kinases and SH2 domains using bacterial peptide display” (eLife, 2023).

tested on: c-Src; assay: phosphorylation enrichment, bacterial display (enrichment ratio); higher = better substrate or ligand; peptides without Tyr show the background
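For SH2 binding enrichment of the phosphorylated peptide, bacterial display in this document: peptide library displayed on the E. coli surface as eCPX fusions, selected cells deep-sequenced, score is each peptide's frequency after selection divided by its frequency in the input.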
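For phosphorylation enrichment, bacterial display in this document: 11-residue human phosphosite peptides and single-mutation variants displayed on the E. coli surface, counted by deep sequencing, each peptide's frequency after selection divided by its frequency in the unselected input library; frequency after pTyr selection over input frequency; kinase dosed for 20-30% of maximal phosphorylation in three min.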

Going from QGLRLYRPHLP [BTK_Y617_A622P] to HFGCVYYGTLL [MET_Y1093_H1094Y], the phosphorylation enrichment rises from 0.419 to 8.21.

First: KANEYYPVVII [ADAMTS18_Y765_L769I]
Second: KDHPDYKFQPR [SOX10_Y171_YF]
The phosphorylation enrichment of the first is higher: 0.704 for the first, 0.453 for the second.

Going from MCDKEYFSVHN [MET_Y1234_Y1230C_YF] to HLVSEYQQFQD [TUBB3_Y422_D417H_YF], the phosphorylation enrichment rises from 0.576 to 0.728.

First: VLTSKYCGGGG [HBA1_Y141_R142C]
Second: MGSFNYLGFPR [SPTLC2_Y178_A182P_YF]
The phosphorylation enrichment of the first is lower: 0.354 for the first, 0.615 for the second.

Compared with NFATLHLKIFH [PDE6B_Y219_Y219H_YF], NNPAFYVLEGV [INPPL1_Y987_YF] is higher in phosphorylation enrichment: 0.522 for the first, 0.638 for the second.

Going from FSQQTYFRVSN [ABCD1_Y180_YF] to KPPFSYNALIR [FOXG1_Y186_M191R], the phosphorylation enrichment falls from 0.931 to 0.504.

First: DPEATYTTSGG [EPHA2_Y772]
Second: LYVDVYGPSVP [NUBPL_Y109_D105Y]
The phosphorylation enrichment of the first is lower: 0.789 for the first, 2.15 for the second.

First: MKGDYYRSLAE [YWHAG_Y131_Y133S]
Second: GRVLGYGTFGK [FLT4_Y853_A855T]
The phosphorylation enrichment of the first is lower: 0.428 for the first, 0.623 for the second.

First: EKKQTYGSCRK [LACTB_Y473_R469K]
Second: LRIAVYHEILI [CREBBP_Y1450_T1447I]
The phosphorylation enrichment of the first is lower: 0.43 for the first, 2.29 for the second.

Compared with NKVQFYIPDMN [NCR1_Y84_K82Q], KDGSGYISAAE [CALM1_Y100_N98S] is lower in phosphorylation enrichment: 0.431 for the first, 0.4 for the second.

Compared with HKNNNYEPNLF [BRCA2_Y57], KKYPDYIQIAM [SGMS2_Y59] is lower in phosphorylation enrichment: 0.579 for the first, 0.483 for the second.

Compared with IYRASYVPFAA [RBM47_Y541_G538R], PTDGVYVMPTV [MYO7A_Y1668_S1666G] is higher in phosphorylation enrichment: 0.681 for the first, 7.86 for the second.

Compared with GGFNNYGFGND [HNRNPH3_Y159_YF], ATAKGYEPDAS [OTC_Y223_P220A] is higher in phosphorylation enrichment: 0.431 for the first, 0.461 for the second.

First: PMWHPYKVDVT [TP53TG5_Y255]
Second: FPSLPYSPVSS [CAMKK2_Y128_C123Y_YF]
The phosphorylation enrichment of the first is higher: 2.06 for the first, 0.457 for the second.

Sequence PPGRSYSPCDF [TNS1_Y793_Y796C_YF] has a phosphorylation enrichment of 0.649.

molecular target: Grb2 SH2 (UniProt P62993); assay: SH2 binding enrichment of the phosphorylated peptide, bacterial display (enrichment ratio); higher = better substrate or ligand; peptides without Tyr show the background
Sequence (P62993 whole entry, looked up): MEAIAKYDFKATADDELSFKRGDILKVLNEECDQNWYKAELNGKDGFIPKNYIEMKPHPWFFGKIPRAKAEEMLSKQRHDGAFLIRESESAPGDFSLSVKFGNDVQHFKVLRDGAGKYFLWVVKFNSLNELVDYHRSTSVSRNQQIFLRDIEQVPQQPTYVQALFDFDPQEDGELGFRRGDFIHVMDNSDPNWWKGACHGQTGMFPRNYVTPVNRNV

Compared with QGLRLYRPHLP [BTK_Y617_A622P], HFGCVYYGTLL [MET_Y1093_H1094Y] is higher in SH2 binding enrichment: 0.816 for the first, 0.841 for the second.

Going from KANEYYPVVII [ADAMTS18_Y765_L769I] to KDHPDYKFQPR [SOX10_Y171_YF], the SH2 binding enrichment rises from 0.721 to 0.946.

Going from MCDKEYFSVHN [MET_Y1234_Y1230C_YF] to HLVSEYQQFQD [TUBB3_Y422_D417H_YF], the SH2 binding enrichment falls from 1.15 to 0.869.

Compared with VLTSKYCGGGG [HBA1_Y141_R142C], MGSFNYLGFPR [SPTLC2_Y178_A182P_YF] is lower in SH2 binding enrichment: 0.884 for the first, 0.862 for the second.

First: NFATLHLKIFH [PDE6B_Y219_Y219H_YF]
Second: NNPAFYVLEGV [INPPL1_Y987_YF]
The SH2 binding enrichment of the first is higher: 1.22 for the first, 0.768 for the second.

First: FSQQTYFRVSN [ABCD1_Y180_YF]
Second: KPPFSYNALIR [FOXG1_Y186_M191R]
The SH2 binding enrichment of the first is lower: 0.887 for the first, 1.01 for the second.

Going from DPEATYTTSGG [EPHA2_Y772] to LYVDVYGPSVP [NUBPL_Y109_D105Y], the SH2 binding enrichment rises from 0.671 to 0.705.

Going from MKGDYYRSLAE [YWHAG_Y131_Y133S] to GRVLGYGTFGK [FLT4_Y853_A855T], the SH2 binding enrichment rises from 0.813 to 1.01.

First: EKKQTYGSCRK [LACTB_Y473_R469K]
Second: LRIAVYHEILI [CREBBP_Y1450_T1447I]
The SH2 binding enrichment of the first is higher: 1.23 for the first, 1.1 for the second.

Going from NKVQFYIPDMN [NCR1_Y84_K82Q] to KDGSGYISAAE [CALM1_Y100_N98S], the SH2 binding enrichment falls from 0.976 to 0.715.

Going from HKNNNYEPNLF [BRCA2_Y57] to KKYPDYIQIAM [SGMS2_Y59], the SH2 binding enrichment rises from 0.637 to 1.04.

Going from IYRASYVPFAA [RBM47_Y541_G538R] to PTDGVYVMPTV [MYO7A_Y1668_S1666G], the SH2 binding enrichment rises from 0.866 to 0.885.

First: GGFNNYGFGND [HNRNPH3_Y159_YF]
Second: ATAKGYEPDAS [OTC_Y223_P220A]
The SH2 binding enrichment of the first is higher: 0.875 for the first, 0.836 for the second.

First: PMWHPYKVDVT [TP53TG5_Y255]
Second: FPSLPYSPVSS [CAMKK2_Y128_C123Y_YF]
The SH2 binding enrichment of the first is lower: 0.525 for the first, 0.857 for the second.

With PPGRSYSPCDF [TNS1_Y793_Y796C_YF] the SH2 binding enrichment was 1.25.

molecular target: SHP2-C SH2; assay: as above

First: QGLRLYRPHLP [BTK_Y617_A622P]
Second: HFGCVYYGTLL [MET_Y1093_H1094Y]
The SH2 binding enrichment of the first is higher: 1.34 for the first, 0.715 for the second.

Compared with KANEYYPVVII [ADAMTS18_Y765_L769I], KDHPDYKFQPR [SOX10_Y171_YF] is higher in SH2 binding enrichment: 0.458 for the first, 0.71 for the second.

First: MCDKEYFSVHN [MET_Y1234_Y1230C_YF]
Second: HLVSEYQQFQD [TUBB3_Y422_D417H_YF]
The SH2 binding enrichment of the first is higher: 1.01 for the first, 0.75 for the second.

First: VLTSKYCGGGG [HBA1_Y141_R142C]
Second: MGSFNYLGFPR [SPTLC2_Y178_A182P_YF]
The SH2 binding enrichment of the first is lower: 0.804 for the first, 1.03 for the second.

First: NFATLHLKIFH [PDE6B_Y219_Y219H_YF]
Second: NNPAFYVLEGV [INPPL1_Y987_YF]
The SH2 binding enrichment of the first is higher: 1.26 for the first, 0.693 for the second.

First: FSQQTYFRVSN [ABCD1_Y180_YF]
Second: KPPFSYNALIR [FOXG1_Y186_M191R]
The SH2 binding enrichment of the first is higher: 1.16 for the first, 0.956 for the second.

Compared with DPEATYTTSGG [EPHA2_Y772], LYVDVYGPSVP [NUBPL_Y109_D105Y] is higher in SH2 binding enrichment: 0.528 for the first, 0.695 for the second.

Compared with MKGDYYRSLAE [YWHAG_Y131_Y133S], GRVLGYGTFGK [FLT4_Y853_A855T] is higher in SH2 binding enrichment: 0.625 for the first, 0.7 for the second.

Going from EKKQTYGSCRK [LACTB_Y473_R469K] to LRIAVYHEILI [CREBBP_Y1450_T1447I], the SH2 binding enrichment falls from 0.838 to 0.798.

Compared with NKVQFYIPDMN [NCR1_Y84_K82Q], KDGSGYISAAE [CALM1_Y100_N98S] is lower in SH2 binding enrichment: 0.888 for the first, 0.816 for the second.

Going from HKNNNYEPNLF [BRCA2_Y57] to KKYPDYIQIAM [SGMS2_Y59], the SH2 binding enrichment rises from 0.502 to 0.787.

Compared with IYRASYVPFAA [RBM47_Y541_G538R], PTDGVYVMPTV [MYO7A_Y1668_S1666G] is higher in SH2 binding enrichment: 0.742 for the first, 0.943 for the second.

Compared with GGFNNYGFGND [HNRNPH3_Y159_YF], ATAKGYEPDAS [OTC_Y223_P220A] is lower in SH2 binding enrichment: 0.697 for the first, 0.598 for the second.

Going from PMWHPYKVDVT [TP53TG5_Y255] to FPSLPYSPVSS [CAMKK2_Y128_C123Y_YF], the SH2 binding enrichment rises from 0.487 to 0.863.

PPGRSYSPCDF [TNS1_Y793_Y796C_YF] showed an SH2 binding enrichment of 0.839.

molecular target: c-Src SH2; assay: as above

Going from QGLRLYRPHLP [BTK_Y617_A622P] to HFGCVYYGTLL [MET_Y1093_H1094Y], the SH2 binding enrichment falls from 0.781 to 0.578.

First: KANEYYPVVII [ADAMTS18_Y765_L769I]
Second: KDHPDYKFQPR [SOX10_Y171_YF]
The SH2 binding enrichment of the first is lower: 0.383 for the first, 0.498 for the second.

Going from MCDKEYFSVHN [MET_Y1234_Y1230C_YF] to HLVSEYQQFQD [TUBB3_Y422_D417H_YF], the SH2 binding enrichment falls from 0.696 to 0.544.

First: VLTSKYCGGGG [HBA1_Y141_R142C]
Second: MGSFNYLGFPR [SPTLC2_Y178_A182P_YF]
The SH2 binding enrichment of the first is lower: 0.545 for the first, 0.865 for the second.

First: NFATLHLKIFH [PDE6B_Y219_Y219H_YF]
Second: NNPAFYVLEGV [INPPL1_Y987_YF]
The SH2 binding enrichment of the first is higher: 1.04 for the first, 0.682 for the second.

Compared with FSQQTYFRVSN [ABCD1_Y180_YF], KPPFSYNALIR [FOXG1_Y186_M191R] is lower in SH2 binding enrichment: 1.09 for the first, 0.742 for the second.

Going from DPEATYTTSGG [EPHA2_Y772] to LYVDVYGPSVP [NUBPL_Y109_D105Y], the SH2 binding enrichment rises from 0.435 to 0.578.

Compared with MKGDYYRSLAE [YWHAG_Y131_Y133S], GRVLGYGTFGK [FLT4_Y853_A855T] is higher in SH2 binding enrichment: 0.415 for the first, 0.725 for the second.

Going from EKKQTYGSCRK [LACTB_Y473_R469K] to LRIAVYHEILI [CREBBP_Y1450_T1447I], the SH2 binding enrichment rises from 0.867 to 0.954.

First: NKVQFYIPDMN [NCR1_Y84_K82Q]
Second: KDGSGYISAAE [CALM1_Y100_N98S]
The SH2 binding enrichment of the first is lower: 0.464 for the first, 0.465 for the second.

First: HKNNNYEPNLF [BRCA2_Y57]
Second: KKYPDYIQIAM [SGMS2_Y59]
The SH2 binding enrichment of the first is lower: 0.413 for the first, 0.644 for the second.

Compared with IYRASYVPFAA [RBM47_Y541_G538R], PTDGVYVMPTV [MYO7A_Y1668_S1666G] is higher in SH2 binding enrichment: 0.611 for the first, 0.848 for the second.

First: GGFNNYGFGND [HNRNPH3_Y159_YF]
Second: ATAKGYEPDAS [OTC_Y223_P220A]
The SH2 binding enrichment of the first is lower: 0.467 for the first, 0.494 for the second.

First: PMWHPYKVDVT [TP53TG5_Y255]
Second: FPSLPYSPVSS [CAMKK2_Y128_C123Y_YF]
The SH2 binding enrichment of the first is lower: 0.436 for the first, 0.672 for the second.

Sequence PPGRSYSPCDF [TNS1_Y793_Y796C_YF] has an SH2 binding enrichment of 0.696.
